Measurements from article PMC10397247.
Read-outs that look alike come from different tables or passages of the source.

Columns and labels:
Test in all cases: two-hybrid library CCmax;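 note: natural log of median RNA to DNA barcode read ratio; higher means stronger binding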
[1] = target: T1, P2-AA-12HAA-H; conditions: mean of both orientations
T1 chain: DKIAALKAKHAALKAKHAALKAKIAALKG

[2] = target: T2, P2-AA-12HAA-D; conditions: mean of both orientations
T2 chain: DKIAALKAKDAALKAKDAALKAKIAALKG

[3] = target: T3, P2-AA-12HAA-L
T3 chain: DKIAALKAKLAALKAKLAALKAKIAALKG

[4] = target: T4, P2-AA-12HAA-Y; conditions: mean of both orientations
T4 chain: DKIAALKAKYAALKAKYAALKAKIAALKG

[5] = target: T5, P2-AA-12HAA-S
T5 chain: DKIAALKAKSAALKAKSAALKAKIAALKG

[6] = target: T6, P2-AA-12HAA-V; conditions: mean of both orientations
T6 chain: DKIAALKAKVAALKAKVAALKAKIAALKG

[7] = target: T7, P2-AA; conditions: mean of both orientations
T7 chain: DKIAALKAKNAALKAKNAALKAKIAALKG

[8] = target: T8, P2-AA-12HAA-I; conditions: mean of both orientations
T8 chain: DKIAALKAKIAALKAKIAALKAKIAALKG

[9] = target: T9, P2-AA-12HAA-E
T9 chain: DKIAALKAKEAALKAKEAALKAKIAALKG

[10] = target: T10, P2-AA-12HAA-T; conditions: mean of both orientations
T10 chain: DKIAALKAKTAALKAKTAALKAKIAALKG

[11] = target: T11, P2-AA-12HAA-R
T11 chain: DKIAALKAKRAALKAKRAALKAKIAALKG

[12] = target: T12, P2-AA-12HAA-K; conditions: mean of both orientations
T12 chain: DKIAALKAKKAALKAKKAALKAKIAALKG

[13] = target: T13, P6-AA-12HAA-T; conditions: mean of both orientations
T13 chain: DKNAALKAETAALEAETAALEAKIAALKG

[14] = target: T14, P6-AA-1HAA-E; conditions: mean of both orientations
T14 chain: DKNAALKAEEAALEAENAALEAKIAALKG

[15] = target: T15, P6-AA-1HAA-L; conditions: mean of both orientations
T15 chain: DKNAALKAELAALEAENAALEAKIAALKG

[16] = target: T16, P6-AA-1HAA-D; conditions: mean of both orientations
T16 chain: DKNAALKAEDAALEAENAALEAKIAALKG

[17] = target: T17, P6-AA-12HAA-E; conditions: mean of both orientations
T17 chain: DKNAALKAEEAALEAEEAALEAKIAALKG

[18] = target: T18, P6-AA-1HAA-Y; conditions: mean of both orientations
T18 chain: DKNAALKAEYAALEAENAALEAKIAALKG

[19] = target: T19, P6-AA-12HAA-D; conditions: mean of both orientations
T19 chain: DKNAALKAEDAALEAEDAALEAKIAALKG

[20] = target: T20, P6-AA-12HAA-K; conditions: mean of both orientations
T20 chain: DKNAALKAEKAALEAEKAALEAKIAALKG

[21] = target: T21, P6-AA-1HAA-R; conditions: mean of both orientations
T21 chain: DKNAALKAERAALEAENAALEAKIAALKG

[22] = target: T22, P6-AA-1HAA-V; conditions: mean of both orientations
T22 chain: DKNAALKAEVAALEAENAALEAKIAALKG

[23] = target: T23, P6-AA-12HAA-H; conditions: mean of both orientations
T23 chain: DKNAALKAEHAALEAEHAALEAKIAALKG

[24] = target: T24, P6-AA-1HAA-S; conditions: mean of both orientations
T24 chain: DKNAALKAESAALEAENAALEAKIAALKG

[25] = target: T25, P6-AA-1HAA-H; conditions: mean of both orientations
T25 chain: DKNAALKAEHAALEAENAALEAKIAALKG

[26] = target: T26, P6-AA-1HAA-N; conditions: mean of both orientations
T26 chain: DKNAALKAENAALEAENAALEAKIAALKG

[27] = target: T27, P6-AA-1HAA-K; conditions: mean of both orientations
T27 chain: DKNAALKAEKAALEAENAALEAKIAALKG

[28] = target: T28, P6-AA-12HAA-R; conditions: mean of both orientations
T28 chain: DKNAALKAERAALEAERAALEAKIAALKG

[29] = target: T29, P6-AA-12HAA-L; conditions: mean of both orientations
T29 chain: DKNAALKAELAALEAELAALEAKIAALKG

[30] = target: T30, P6-AA-12HAA-Y; conditions: mean of both orientations
T30 chain: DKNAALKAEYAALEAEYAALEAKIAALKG

[31] = target: T31, P6-AA-12HAA-S; conditions: mean of both orientations
T31 chain: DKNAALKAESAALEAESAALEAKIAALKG

[32] = target: T32, P6-AA-12HAA-V; conditions: mean of both orientations
T32 chain: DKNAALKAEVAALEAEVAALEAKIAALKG

[33] = target: T33, P6-AA-1HAA-T; conditions: mean of both orientations
T33 chain: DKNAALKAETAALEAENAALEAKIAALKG

With DEIAALEAEKAALEAEKAALEAEIAALEG [P1-AA-12HAA-K] as the binder, how does the interaction score [1] read?
Its interaction score is 0.974.

What about the interaction score [2] of the same binder?
The interaction score was -0.759.

What about the interaction score [3] of the same binder?
Its interaction score is 1.62.

And the interaction score [4]?
Its interaction score is 0.916.

What about the interaction score ([5]; mean of both orientations) of the same binder?
Its interaction score is -0.0454.

What about the interaction score [6] of the same binder?
Its interaction score is 1.38.

And the interaction score [7]?
The interaction score was 1.75.

What about the interaction score [8] of the same binder?
The interaction score was 1.67.

And the interaction score ([9]; mean of both orientations)?
The interaction score was -0.226.

What about the interaction score [10] of the same binder?
Its interaction score is 0.253.

And the interaction score ([11]; mean of both orientations)?
The interaction score was -0.283.

What about the interaction score [12] of the same binder?
Its interaction score is -1.33.

Which results are given for DEIAALEAETAALEAETAALEAEIAALEG [P1-AA-12HAA-T]?
interaction score [1]: 1.5; interaction score [2]: -1.06; interaction score ([3]; mean of both orientations): 1.97; interaction score [4]: 1.53; interaction score ([5]; mean of both orientations): 1.33; interaction score [6]: 1.98; interaction score [7]: 2.07; interaction score [8]: 1.84; interaction score ([9]; mean of both orientations): 0.124; interaction score [10]: 1.56; interaction score [11]: 1.79; interaction score [12]: 1.37

How did the interaction score [13] turn out when DENAALEAKNAALKAKNAALKAEIAALEG [P5-AA-1HAA-N] was run?
The interaction score was -0.0689.

What about the interaction score [14] of the same binder?
Its interaction score is 0.442.

What about the interaction score [15] of the same binder?
Its interaction score is 1.05.

And the interaction score [16]?
The interaction score was -0.622.

And the interaction score [17]?
The interaction score was -0.844.

What about the interaction score [18] of the same binder?
The interaction score was 1.5.

And the interaction score [19]?
The interaction score was -1.55.

And the interaction score [20]?
Its interaction score is -0.291.

What about the interaction score [21] of the same binder?
The interaction score was 0.871.

What about the interaction score [22] of the same binder?
The interaction score was 1.86.

And the interaction score [23]?
Its interaction score is 0.901.

What about the interaction score [24] of the same binder?
The interaction score was 1.15.

And the interaction score [25]?
The interaction score was 1.2.

And the interaction score [26]?
The interaction score was 2.27.

What about the interaction score [27] of the same binder?
The interaction score was 0.958.

And the interaction score [28]?
The interaction score was -0.112.

And the interaction score [29]?
Its interaction score is -0.372.

What about the interaction score [30] of the same binder?
The interaction score was 0.697.

What about the interaction score [31] of the same binder?
The interaction score was -0.405.

And the interaction score [32]?
The interaction score was -0.62.

And the interaction score [33]?
The interaction score was 1.25.

What does the source list for DEIAALEAEYAALEAEYAALEAEIAALEG [P1-AA-12HAA-Y]?
interaction score [1]: 1.67; interaction score [2]: -0.93; interaction score ([3]; mean of both orientations): 2.1; interaction score [4]: 2.02; interaction score ([5]; mean of both orientations): 1.85; interaction score [6]: 1.72; interaction score [7]: 1.97; interaction score [8]: 1.8; interaction score [9]: 1.74; interaction score [10]: 1.76; interaction score ([11]; mean of both orientations): 1.4; interaction score [12]: 1.89

What does the source list for DEIAALEAEEAALEAEEAALEAEIAALEG [P1-AA-12HAA-E]?
interaction score [1]: 1.59; interaction score [2]: -1.42; interaction score ([3]; mean of both orientations): 1.82; interaction score [4]: -0.0466; interaction score ([5]; mean of both orientations): 0.789; interaction score [6]: 1.49; interaction score [7]: 1.91; interaction score [8]: 1.5; interaction score ([9]; mean of both orientations): -0.819; interaction score [10]: 0.375; interaction score ([11]; mean of both orientations): 1.71; interaction score [12]: 1.62

Which interaction score [1] does the source give for DEIAALEAELAALEAELAALEAEIAALEG [P1-AA-12HAA-L] here?
Its interaction score is 1.84.

What about the interaction score [2] of the same binder?
Its interaction score is 1.26.

And the interaction score ([3]; mean of both orientations)?
The interaction score was 2.35.

What about the interaction score [4] of the same binder?
The interaction score was 1.68.

And the interaction score [5]?
Its interaction score is 1.59.

And the interaction score [6]?
Its interaction score is 2.38.

What about the interaction score [7] of the same binder?
Its interaction score is 1.49.

What about the interaction score [8] of the same binder?
The interaction score was 1.68.

What about the interaction score ([9]; mean of both orientations) of the same binder?
Its interaction score is 1.74.

What about the interaction score [10] of the same binder?
The interaction score was 2.1.

What about the interaction score ([11]; mean of both orientations) of the same binder?
The interaction score was 1.7.

What about the interaction score [12] of the same binder?
Its interaction score is 1.6.

How did the interaction score [1] turn out when DEIAALEAESAALEAESAALEAEIAALEG [P1-AA-12HAA-S] was run?
Its interaction score is 1.58.

What about the interaction score [2] of the same binder?
The interaction score was -0.855.

What about the interaction score ([3]; mean of both orientations) of the same binder?
The interaction score was 2.15.

What about the interaction score [4] of the same binder?
The interaction score was 0.635.

What about the interaction score ([5]; mean of both orientations) of the same binder?
Its interaction score is 1.26.

And the interaction score [6]?
Its interaction score is 1.8.

And the interaction score [7]?
Its interaction score is 2.24.

And the interaction score [8]?
The interaction score was 1.69.

What about the interaction score [9] of the same binder?
Its interaction score is -0.4.

And the interaction score [10]?
Its interaction score is 0.962.

What about the interaction score ([11]; mean of both orientations) of the same binder?
Its interaction score is 1.11.

What about the interaction score [12] of the same binder?
The interaction score was 0.951.
